Assay results as given in the supplement of paper PMC9876800.

System: peptide library, one residue held at a place counted from the S/T acceptor
Test: relative phosphorylation of the sub-library (ratio to the mean residue at this position); higher = residue favoured
Details: human
Outline: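 Relative sub-library phosphorylation is the ratio of each sub-library's signal to the mean residue at that position. The signal came from phosphorimaging of spots on streptavidin membranes, quantified by densitometry, after purified recombinant kinases reacted with biotinylated degenerate peptide sub-libraries in 384-well plates. Reactions held 50 μM peptide and 50 μM ATP spiked with γ-32P-ATP for 90 min under kinase-specific conditions.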

Sequence of HIPK2, construct: aa153-564 (Q9H2X6 153-564, looked up): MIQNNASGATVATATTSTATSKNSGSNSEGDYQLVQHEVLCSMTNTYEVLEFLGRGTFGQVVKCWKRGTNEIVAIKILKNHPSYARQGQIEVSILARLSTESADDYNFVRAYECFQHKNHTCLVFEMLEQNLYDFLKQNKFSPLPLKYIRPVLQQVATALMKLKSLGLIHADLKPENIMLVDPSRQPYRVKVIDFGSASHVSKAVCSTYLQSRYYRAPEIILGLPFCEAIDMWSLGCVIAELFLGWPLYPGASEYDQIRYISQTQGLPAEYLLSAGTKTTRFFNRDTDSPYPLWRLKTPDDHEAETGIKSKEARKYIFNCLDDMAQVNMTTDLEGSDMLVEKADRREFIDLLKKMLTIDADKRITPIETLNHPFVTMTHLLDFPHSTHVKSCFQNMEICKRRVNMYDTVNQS
Sequence of DCLK1, construct: aa351-689 (O15075 351-689, looked up): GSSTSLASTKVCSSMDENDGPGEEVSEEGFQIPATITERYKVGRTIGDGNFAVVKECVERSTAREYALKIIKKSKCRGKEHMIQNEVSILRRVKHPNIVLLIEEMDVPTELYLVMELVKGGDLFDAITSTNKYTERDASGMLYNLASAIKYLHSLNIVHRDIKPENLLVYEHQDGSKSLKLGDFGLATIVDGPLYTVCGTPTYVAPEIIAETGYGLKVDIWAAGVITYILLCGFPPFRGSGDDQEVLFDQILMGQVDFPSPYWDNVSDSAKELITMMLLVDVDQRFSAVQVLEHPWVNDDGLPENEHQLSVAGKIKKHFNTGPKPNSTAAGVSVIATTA
Sequence of HIPK3, construct: aa161-562 (Q9H422 161-562, looked up): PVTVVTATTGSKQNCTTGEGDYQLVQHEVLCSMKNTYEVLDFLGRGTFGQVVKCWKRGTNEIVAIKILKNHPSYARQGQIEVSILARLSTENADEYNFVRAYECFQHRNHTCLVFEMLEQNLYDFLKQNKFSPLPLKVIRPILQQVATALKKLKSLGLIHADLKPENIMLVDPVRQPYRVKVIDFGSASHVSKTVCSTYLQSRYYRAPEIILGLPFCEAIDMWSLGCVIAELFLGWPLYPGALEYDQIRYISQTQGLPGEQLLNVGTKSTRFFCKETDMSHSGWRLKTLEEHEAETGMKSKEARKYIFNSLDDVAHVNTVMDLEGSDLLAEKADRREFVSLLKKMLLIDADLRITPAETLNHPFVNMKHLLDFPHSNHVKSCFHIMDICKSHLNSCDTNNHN

DCLK1, construct: aa351-689 (from UniProt O15075)
relative phosphorylation
Details | at +1 | at +2 | at +3 | at +4 | at -1 | at -2 | at -3 | at -4 | at -5
A fixed | 0.741 | 1.04 | 0.876 | 0.928 | 0.957 | 1.35 | 0.773 | 1.13 | 1.09
D fixed | 0.495 | 0.579 | 0.771 | 0.814 | 0.62 | 0.651 | 0.307 | 0.553 | 0.468
E fixed | 0.508 | 0.36 | 0.817 | 0.761 | 0.362 | 1.5 | 0.386 | 0.912 | 0.452
F fixed | 2.44 | 1.04 | 0.991 | 1.34 | 0.427 | 0.582 | 0.281 | 0.617 | 1.08
G fixed | 0.765 | 0.962 | 1.25 | 1.11 | 1.72 | 1.45 | 0.704 | 1.09 | 1.07
H fixed | 1.01 | 1.39 | 1.38 | 0.944 | 1.33 | 1.12 | 0.979 | 1.15 | 1.01
I fixed | 0.485 | 1.08 | 0.571 | 0.972 | 0.277 | 0.315 | 0.133 | 0.462 | 0.759
K fixed | 1.1 | 0.523 | 1.27 | 1.23 | 2.27 | 1.5 | 3.37 | 2.12 | 1.56
L fixed | 0.774 | 1.3 | 0.952 | 1.03 | 0.745 | 0.499 | 0.245 | 0.659 | 1.02
M fixed | 1.53 | 1.48 | 0.66 | 1.26 | 0.797 | 1.06 | 0.415 | 0.947 | 0.938
N fixed | 1.11 | 0.719 | 0.988 | 0.871 | 1.07 | 1.12 | 0.568 | 0.909 | 0.716
P fixed | 0.274 | 0.63 | 0.789 | 1.17 | 1.37 | 0.383 | 0.821 | 1.08 | 1.16
Q fixed | 1.13 | 0.626 | 1.16 | 0.925 | 0.958 | 1.75 | 0.771 | 1.04 | 0.907
R fixed | 1.22 | 0.52 | 1.46 | 1.05 | 2.01 | 1.78 | 6.04 | 1.92 | 1.68
V fixed | 0.705 | 1.23 | 0.79 | 0.889 | 0.529 | 0.464 | 0.244 | 0.665 | 0.886
W fixed | 1.34 | 1.59 | 1.32 | 0.929 | 0.528 | 0.685 | 0.475 | 0.876 | 1.36
Y fixed | 1.38 | 1.94 | 0.953 | 0.781 | 1.03 | 0.785 | 0.486 | 0.861 | 0.832
pThr fixed | 0.78 | 0.776 | 0.779 | 1.2 | 0.322 | 0.357 | 0.407 | 0.688 | 0.712
pTyr fixed | 1.01 | 2.9 | 0.913 | 0.688 | 0.585 | 0.497 | 0.391 | 0.683 | 0.813

EIF2AK2, construct: aa252-end (from UniProt P19525)
relative phosphorylation
Details | at +1 | at +2 | at +3 | at +4 | at -1 | at -2 | at -3 | at -4 | at -5
A fixed | 0.837 | 0.775 | 0.867 | 0.96 | 0.739 | 1.04 | 0.961 | 1.13 | 1.13
D fixed | 0.526 | 0.705 | 0.665 | 0.818 | 0.726 | 0.939 | 1.13 | 1.05 | 0.979
E fixed | 0.509 | 0.688 | 0.599 | 0.844 | 0.64 | 0.912 | 1.18 | 0.954 | 0.945
F fixed | 0.695 | 0.616 | 1.02 | 0.701 | 0.681 | 0.989 | 0.774 | 1.06 | 0.853
G fixed | 1.12 | 1.55 | 1.46 | 1.23 | 0.724 | 0.999 | 1.51 | 1.13 | 1.21
H fixed | 0.762 | 1.2 | 1.16 | 1.24 | 1.21 | 1.14 | 0.95 | 1.02 | 1.07
I fixed | 1.01 | 0.648 | 0.9 | 1.04 | 1.16 | 0.793 | 0.89 | 0.805 | 0.995
K fixed | 1.93 | 1.5 | 1.76 | 1.36 | 1.93 | 1.03 | 1.11 | 1.15 | 1.15
L fixed | 1.01 | 0.541 | 0.896 | 0.73 | 0.915 | 1.32 | 0.779 | 0.815 | 0.767
M fixed | 1.25 | 0.643 | 0.779 | 0.935 | 1.03 | 1.01 | 0.961 | 0.868 | 0.884
N fixed | 1.04 | 1.78 | 0.876 | 0.972 | 1.18 | 1.2 | 0.99 | 0.937 | 1
P fixed | 0.4 | 0.644 | 0.966 | 0.815 | 0.648 | 0.963 | 0.969 | 0.954 | 0.93
Q fixed | 1.22 | 0.845 | 0.925 | 0.811 | 0.95 | 1.02 | 0.855 | 0.92 | 0.855
R fixed | 2.57 | 2.68 | 1.7 | 1.75 | 1.97 | 1.09 | 1.5 | 1.21 | 1.41
V fixed | 0.897 | 0.708 | 0.798 | 0.812 | 1.07 | 0.863 | 0.819 | 0.875 | 0.824
W fixed | 0.637 | 0.715 | 0.863 | 1.06 | 0.64 | 0.87 | 0.804 | 1.24 | 0.947
Y fixed | 0.585 | 0.757 | 0.768 | 0.927 | 0.771 | 0.818 | 0.821 | 0.878 | 1.05
pThr fixed | 0.58 | 0.605 | 0.729 | 0.854 | 0.677 | 0.853 | 1.04 | 0.992 | 0.947
pTyr fixed | 0.489 | 0.897 | 0.717 | 0.853 | 0.629 | 0.933 | 0.955 | 0.735 | 0.968

HIPK2, construct: aa153-564 (from UniProt Q9H2X6)
relative phosphorylation
Details | at +1 | at +2 | at +3 | at +4 | at -1 | at -2 | at -3 | at -4 | at -5
A fixed | 0.477 | 1.23 | 0.93 | 0.869 | 1.32 | 2.32 | 0.857 | 1.07 | 1.08
D fixed | 0.109 | 0.923 | 0.689 | 0.906 | 0.483 | 0.281 | 0.703 | 0.956 | 0.993
E fixed | 0.125 | 0.509 | 0.582 | 0.75 | 0.514 | 0.284 | 0.592 | 1 | 0.893
F fixed | 0.151 | 1.2 | 0.766 | 1.12 | 0.482 | 0.32 | 0.261 | 0.575 | 0.814
G fixed | 0.628 | 1.64 | 1.4 | 1.16 | 1.16 | 0.943 | 1.33 | 1.24 | 1.09
H fixed | 0.224 | 1.34 | 1.08 | 1.01 | 0.948 | 0.387 | 0.658 | 0.899 | 1.09
I fixed | 0.225 | 0.631 | 0.649 | 0.95 | 0.397 | 0.66 | 0.279 | 0.562 | 0.686
K fixed | 0.284 | 1.2 | 0.738 | 1.04 | 1.98 | 0.671 | 1.2 | 1.05 | 1.1
L fixed | 0.189 | 0.634 | 0.803 | 0.839 | 0.578 | 0.621 | 0.361 | 0.69 | 0.754
M fixed | 0.183 | 0.765 | 0.742 | 0.901 | 0.782 | 0.543 | 0.326 | 0.72 | 0.652
N fixed | 0.235 | 1.02 | 0.953 | 0.878 | 0.843 | 0.739 | 0.784 | 0.887 | 0.971
P fixed | 11.5 | 1.46 | 3.51 | 1.06 | 1.95 | 4.16 | 1.06 | 2.04 | 1.49
Q fixed | 0.251 | 0.766 | 0.971 | 1.11 | 1.35 | 0.569 | 0.821 | 0.977 | 0.993
R fixed | 1.6 | 1.22 | 0.914 | 0.993 | 2.33 | 2.9 | 6.74 | 2.38 | 1.72
V fixed | 0.481 | 0.722 | 0.677 | 1.01 | 0.65 | 0.949 | 0.34 | 0.574 | 0.716
W fixed | 0.161 | 0.951 | 0.852 | 1.3 | 0.624 | 0.304 | 0.348 | 0.655 | 0.782
Y fixed | 0.163 | 0.79 | 0.741 | 1.11 | 0.604 | 0.347 | 0.35 | 0.727 | 1.16
pThr fixed | 0.283 | 0.441 | 0.615 | 0.816 | 0.423 | 1.04 | 0.734 | 1.27 | 1.23
pTyr fixed | 0.251 | 0.431 | 0.989 | 1.15 | 0.614 | 0.375 | 0.628 | 1.01 | 1.19

HIPK3, construct: aa161-562 (from UniProt Q9H422)
relative phosphorylation
Details | at +1 | at +2 | at +3 | at +4 | at -1 | at -2 | at -3 | at -4 | at -5
A fixed | 0.905 | 1.05 | 1.03 | 0.883 | 1.43 | 2.27 | 1.26 | 1.07 | 0.866
D fixed | 0.116 | 0.665 | 0.422 | 0.718 | 0.435 | 0.171 | 0.37 | 0.534 | 0.617
E fixed | 0.135 | 0.371 | 0.338 | 0.569 | 0.46 | 0.158 | 0.375 | 0.63 | 0.608
F fixed | 0.541 | 1.27 | 0.965 | 1.07 | 0.843 | 0.617 | 0.713 | 1.33 | 1.32
G fixed | 0.8 | 1.07 | 0.954 | 1.02 | 1.07 | 0.734 | 1.06 | 0.962 | 0.863
H fixed | 0.422 | 1.3 | 0.962 | 1.05 | 0.765 | 0.465 | 0.687 | 0.859 | 1.03
I fixed | 0.656 | 0.842 | 1.26 | 1.17 | 1.07 | 1.24 | 0.682 | 1.05 | 0.913
K fixed | 0.324 | 1.33 | 0.598 | 1.1 | 1.12 | 0.745 | 0.858 | 1.01 | 1.1
L fixed | 0.553 | 1.02 | 1.05 | 0.844 | 0.932 | 0.757 | 0.586 | 0.842 | 1.15
M fixed | 0.706 | 1.34 | 1.2 | 1.05 | 1.17 | 0.835 | 0.752 | 1.09 | 0.951
N fixed | 0.21 | 0.801 | 0.714 | 0.894 | 0.585 | 0.528 | 0.481 | 0.545 | 0.771
P fixed | 8.32 | 0.967 | 2.43 | 1.1 | 1.52 | 2.41 | 0.72 | 1.04 | 1.17
Q fixed | 0.273 | 0.703 | 0.762 | 1.01 | 0.907 | 0.626 | 0.679 | 0.799 | 0.984
R fixed | 1.5 | 1.52 | 1.12 | 1.36 | 2.1 | 3.19 | 6.13 | 2.47 | 1.8
V fixed | 0.649 | 0.847 | 1.22 | 0.951 | 0.929 | 1.2 | 0.614 | 0.918 | 0.812
W fixed | 0.535 | 1 | 0.97 | 1.16 | 0.76 | 0.568 | 0.553 | 0.896 | 0.789
Y fixed | 0.351 | 0.895 | 0.998 | 1.05 | 0.913 | 0.492 | 0.482 | 0.956 | 1.25
pThr fixed | 0.236 | 0.362 | 0.387 | 0.458 | 0.427 | 0.737 | 0.512 | 0.745 | 0.925
pTyr fixed | 0.283 | 0.331 | 0.529 | 0.601 | 0.585 | 0.296 | 0.624 | 0.7 | 0.939
